Assay results taken from patent publication US20180095066A1 (OXFORD NANOPORE TECHNOLOGIES, published 2018).

B1: MspA-(G75S/G77S/L88N/D90N/D91N/D93N/D118R/Q126R/D134R/E139K) monomer (other)
chain: GLDNELSLVDGQDRTLTVQQWDTFLNGVFPLDRNRLTREWFHSGRAKYIVAGPGADEFEGTLELGYQIGFPWSLSVSINFSYTTPNININNGNITAPPFGLNSVITPNLFPGVSISARLGNGPGIREVATFSVRVSGAKGGVAVSNAHGTVTGAAGGVLLRPFARLIASTGDSVTTYGEPWNMN
notes: Made by coupled in vitro transcription and translation (35S-methionine) with rabbit red blood cell membranes; eight copies in the homo-oligomer; also called untagged monomer; untagged version
B6: MspA-((Del-L74/G75/D118/L119)D56N/E59R/L88N/D90N/D91N/Q126R/D134R/E139K) monomer (other)
chain: GLDNELSLVDGQDRTLTVQQWDTFLNGVFPLDRNRLTREWFHSGRAKYIVAGPGANEFRGTLELGYQIGFPWSVGINFSYTTPNININNGDITAPPFGLNSVITPNLFPGVSISAGNGPGIREVATFSVRVSGAKGGVAVSNAHGTVTGAAGGVLLRPFARLIASTGDSVTTYGEPWNMN
notes: Pore-forming monomer; Seven copies in MspA 1 (7:1), eight in the homo-oligomer MspA 6; also called untagged monomer of MspA 1; monomer of MspA 6

How the values were obtained:
[1] = biological target: the molecule itself; assay: IVTT with rRBCM, 7.5% Tris HCl gel, autoradiography
[2] = biological target: the molecule itself; assay: IVTT with rRBCM, 5% Tris HCl gel, autoradiography; homo-oligomerisation
[3] = biological target: B1; assay: IVTT of mixed DNA (2:1 untagged:tagged) with rRBCM, 7.5% Tris HCl gel, autoradiography
[4] = biological target: B6; assay: co-expression in E. coli, His column, gel filtration, gel; 7:1 hetero-oligomer
[5] = biological target: T1, MspA-((Del-L74/G75/D118/L119)D56N/E59R/L88N/D90N/D91N/N108P/Q126R/D134R/E139K) monomer (Mycobacterium smegmatis, UniProt A0QR29 28-211); assay: co-expression under 14 induction conditions, NiNTA batch purification, 10% TGX gel
T1 construct: Seven copies in each of the 7:1 pores MspA 2, MspA 3 and MspA 7; also called untagged monomer of MspA 2, MspA 3 and MspA 7
T1 chain: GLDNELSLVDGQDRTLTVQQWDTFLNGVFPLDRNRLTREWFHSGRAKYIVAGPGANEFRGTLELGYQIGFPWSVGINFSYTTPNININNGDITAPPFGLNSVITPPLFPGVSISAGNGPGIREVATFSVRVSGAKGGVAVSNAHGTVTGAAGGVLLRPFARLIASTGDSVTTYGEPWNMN

[6] = biological target: the molecule itself; assay: 10% TGX gel, coomassie; homo-octamer, broken into monomers at 100 C in 50% DMSO

## B1
[1]
  binding result: binds

B2: MspA-(G75S/G77S/L88N/D90N/D91N/D93N/D118R/Q126R/D134R/E139K/D10H6) monomer (other)
chain: GLDNELSLVDGQDRTLTVQQWDTFLNGVFPLDRNRLTREWFHSGRAKYIVAGPGADEFEGTLELGYQIGFPWSLSVSINFSYTTPNININNGNITAPPFGLNSVITPNLFPGVSISARLGNGPGIREVATFSVRVSGAKGGVAVSNAHGTVTGAAGGVLLRPFARLIASTGDSVTTYGEPWNMNDDDDDDDDDDHHHHHH
notes: also called D10H6 tagged monomer
[2]
  binding result: no binding

B3: MspA-(G75S/G77S/L88N/D90N/D91N/D93N/D118R/Q126R/D134R/E139K/BasTL) monomer (other)
chain: GLDNELSLVDGQDRTLTVQQWDTFLNGVFPLDRNRLTREWFHSGRAKYIVAGPGADEFEGTLELGYQIGFPWSLSVSINFSYTTPNININNGNITAPPFGLNSVITPNLFPGVSISARLGNGPGIREVATFSVRVSGAKGGVAVSNAHGTVTGAAGGVLLRPFARLIASTGDSVTTYGEPWNMNDNQKALEEQMNSINSVNDKLNKGKGKLSLSMNGNQLKATSSNAGYGISYEDKNWGIFVNGEKVYTFNEKSTVGNISNDINKLNIKGPYIEIKKI
notes: also called monomer tagged with full length BasTL
[3]
  binding result: binds

B4: MspA-((Del-L74/G75/D118/L119)D56N/E59R/L88N/D91N/Q126R/D134R/E139K/BasTL/H6) monomer (other)
chain: GLDNELSLVDGQDRTLTVQQWDTFLNGVFPLDRNRLTREWFHSGRAKYIVAGPGANEFRGTLELGYQIGFPWSVGINFSYTTPNINIDNGDITAPPFGLNSVITPNLFPGVSISAGNGPGIREVATFSVRVSGAKGGVAVSNAHGTVTGAAGGVLLRPFARLIASTGDSVTTYGEPWNMNDNQKALEEQMNSINSVNDKLNKGKGKLSLSMNGNQLKATSSNAGYGISYEDKNWGIFVNGEKVYTFNEKSTVGNISNDINKLNIKGPYIEIKKIHHHHHH
notes: also called tagged monomer of MspA 1
[4]
  binding result: binds

B5: MspA-((Del-L74/G75/D118/L119)D56N/E59R/L88N/D91N/N108P/Q126R/D134R/E139K/BasTL/H6) monomer (other)
chain: GLDNELSLVDGQDRTLTVQQWDTFLNGVFPLDRNRLTREWFHSGRAKYIVAGPGANEFRGTLELGYQIGFPWSVGINFSYTTPNINIDNGDITAPPFGLNSVITPPLFPGVSISAGNGPGIREVATFSVRVSGAKGGVAVSNAHGTVTGAAGGVLLRPFARLIASTGDSVTTYGEPWNMNDNQKALEEQMNSINSVNDKLNKGKGKLSLSMNGNQLKATSSNAGYGISYEDKNWGIFVNGEKVYTFNEKSTVGNISNDINKLNIKGPYIEIKKIHHHHHH
notes: One copy in MspA 2 (7:1); also called tagged monomer of MspA 2; monomer unit with the BasTL-H6 attached
[5]
  binding result: binds

## B6
[6]
  binding result: binds
